Reference: patent US20090232803A1 (Novartis, published 2009)

What was measured:
recombinant human IL-1β [1] = target: T1, recombinant human IL-1β (human, UniProt P01584 117-269); assay: BIAcore SPR; AAL160 immobilised, recombinant IL-1β 0.5 to 12 nM, 1:1 model, n = 15
T1 construct: mature; it is entered under this molecule; also called human interleukin 1 beta; huIL-1β
Description: Data analysis is performed using the BIAevaluation software.

Human IL-1Ra [2] = target: T2, Human IL-1Ra (human, UniProt P18510 26-177); assay: Biacore, AAL160 immobilised
T2 construct: also called IL-1 receptor antagonist
T2 sequence (P18510 26-177 limits assumed): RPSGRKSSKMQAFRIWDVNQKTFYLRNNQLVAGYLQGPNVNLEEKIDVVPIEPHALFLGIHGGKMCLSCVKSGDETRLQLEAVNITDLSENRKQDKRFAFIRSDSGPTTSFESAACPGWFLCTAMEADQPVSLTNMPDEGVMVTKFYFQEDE

Rat IL-1β [3] = target: T3, Rat IL-1β (rat, UniProt Q63264 117-268); assay: Biacore, AAL160 immobilised
T3 sequence (looked up): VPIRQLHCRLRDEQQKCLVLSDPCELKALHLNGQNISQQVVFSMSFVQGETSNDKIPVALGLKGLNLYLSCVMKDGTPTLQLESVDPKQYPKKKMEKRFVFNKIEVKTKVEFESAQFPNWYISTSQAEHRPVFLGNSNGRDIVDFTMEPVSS

Human IL-1α [4] = target: T4, Human IL-1α (human, UniProt P01583 113-271); assay: Biacore, AAL160 immobilised
T4 sequence (looked up): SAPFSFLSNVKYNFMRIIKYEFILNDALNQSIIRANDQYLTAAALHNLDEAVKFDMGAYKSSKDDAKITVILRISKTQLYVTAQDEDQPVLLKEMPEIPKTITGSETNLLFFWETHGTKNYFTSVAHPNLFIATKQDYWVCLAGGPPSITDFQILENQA

Mouse IL-1β [5] = target: T5, Mouse IL-1β (mouse, UniProt P10749 118-269); assay: Biacore, AAL160 immobilised
T5 construct: also called murine IL-1β
T5 sequence (looked up): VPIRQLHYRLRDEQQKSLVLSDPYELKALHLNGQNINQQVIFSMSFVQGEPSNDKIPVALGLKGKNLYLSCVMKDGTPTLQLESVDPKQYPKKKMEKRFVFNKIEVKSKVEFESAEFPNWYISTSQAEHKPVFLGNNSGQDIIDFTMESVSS

Cynomolgus IL-1β = target: T6, Cynomolgus IL-1β (cynomolgus monkey, UniProt P79182 117-268); assay: Biacore; AAL160 immobilised, cytokine at 8 nM (or 20 nM in the case of IL-1β)
T6 construct: also called cynomolgus monkey IL-1β
T6 sequence (looked up): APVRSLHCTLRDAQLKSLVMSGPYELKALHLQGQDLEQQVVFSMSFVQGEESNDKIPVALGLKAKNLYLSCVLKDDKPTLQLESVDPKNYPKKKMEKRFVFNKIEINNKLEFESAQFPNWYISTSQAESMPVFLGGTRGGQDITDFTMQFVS

Human IL-1Ra [6] = target: T2, Human IL-1Ra; assay: as above
recombinant human IL-1β [7] = target: T1, recombinant human IL-1β; assay: as above
Rat IL-1β [8] = target: T3, Rat IL-1β; assay: as above
Human IL-1α [9] = target: T4, Human IL-1α; assay: as above
Mouse IL-1β [10] = target: T5, Mouse IL-1β; assay: as above
recombinant human IL-1β [11] = target: T1, recombinant human IL-1β; assay: cell-based or functional assay
recombinant human IL-1β [12] = target: T1, recombinant human IL-1β; assay: Biacore competition: AAL160 immobilised on the chip, recombinant human IL-1β (8 nM) injected with increasing concentrations of soluble receptor type I; readout is % binding of IL-1β to AAL160 (competitor: AAL160)

B1: AAL160 antibody (human IgG1/κ monoclonal antibody to human IL-1β) (antibody, V domains shown)
VH: EVQLVQSGAEVKKPGESLKISCKGSGYSFTSYWIGWVRQMPGKGLEWMGIIYPSDSDTRYSPSFQGQVTISADKSISTAYLQWSSLKASDTAMYYCARYTNWDAFDIWGQGTMVTVSS
VL: EIVLTQSPATLSLSPGERATLSCRASQSVSSYLAWYQQKPGQAPRLLIYDASNRATGIPARFSGSGSGTDFTLTISSLEPEDFAVYYCQQRSNWMFPFGQGTKLEIK
notes: It was purified from hybridoma supernatant on protein A; also called NVP AAL 160 NX-1; hybridoma # 476
In the case of B1, the Kd (recombinant human IL-1β [1]) is reported as 0.397 nM, the koff (recombinant human IL-1β [1]) is reported as 0.000153 s⁻¹ and the kon (recombinant human IL-1β [1]) is reported as 391000 M⁻¹ s⁻¹. B1: no binding (tested: 8 nM (or 20 nM in the case of IL-1β)) (Human IL-1Ra [2]); no binding (tested: 8 nM (or 20 nM in the case of IL-1β)) (Rat IL-1β [3]); no binding (tested: 8 nM (or 20 nM in the case of IL-1β)) (Human IL-1α [4]). The binding result (Mouse IL-1β [5]) was “no binding (tested: 8 nM (or 20 nM in the case of IL-1β))”, the “Percent of total binding” value (Cynomolgus IL-1β) was 96.4% and the “Percent of total binding” value (Human IL-1Ra [6]) was 1.2%. For the same binder, the “Percent of total binding” value (recombinant human IL-1β [7]) was 100%, the “Percent of total binding” value (Rat IL-1β [8]) was 3% and the “Percent of total binding” value (Human IL-1α [9]) was 0.7%. For the same binder, the “Percent of total binding” value (Mouse IL-1β [10]) was 2.8%, the “IC50, IL-6 secretion, Recombinant (primary human dermal fibroblasts stimulated with recombinant IL-1β)” value (recombinant human IL-1β [11]) was 0.34 nM and the “IC50, IL-6 secretion, cond. Medium (primary human dermal fibroblasts stimulated with conditioned medium of LPS-stimulated human PBMCs, natural IL-1β)” value (recombinant human IL-1β [11]) was 0.6 nM. The “IC50, PGE2 production, cond. Medium (primary human dermal fibroblasts stimulated with conditioned medium of LPS-stimulated human PBMCs, natural IL-1β)” value (recombinant human IL-1β [11]) was 0.79 nM.

B2: recombinant human soluble IL-1 receptor type I (receptor, UniProt P14778 18-332, looked up)
chain: LEADKCKEREEKIILVSSANEIDVRPCPLNPNEHKGTITWYKDDSKTPVSTEQASRIHQHKEKLWFVPAKVEDSGHYYCVVRNSSYCLRIKISAKFVENEPNLCYNAQAIFKQKLPVAGDGGLVCPYMEFFKNENNELPKLQWYKDCKPLLLDNIHFSGVKDRLIVMNVAEKHRGNYTCHASYTYLGKQYPITRVIEFITLEENKPTRPVIVSPANETMEVDLGSQIQLICNVTGQLSDIAYWKWNGSVIDEDDPVLGEDYYSVENPANKRRSTLITVLNISEIESRFYKHPFTCFAKNTHGIDAAYIQLIYPVT
notes: soluble; also called soluble IL-1 type I receptor; receptor I
B2 was tested, and the IC50 (recombinant human IL-1β [12]) was 3.4 nM.
